# Results published in paper PMC11250742, “Preclinical evaluation of CXCR4 peptides for targeted radionuclide therapy in glioblastoma” (EJNMMI Radiopharmacy and Chemistry, 2024).
# Where a SMILES comes first, the peptide text is derived from it. Bridges are numbered along the chain shown (N, C = ends). [ ]: non-standard residue; d: D form. The star is where a group is joined. DOTA = O=C(O)CN1CCN(CC(=O)O)CCN(CC(=O)*)CCN(CC(=O)O)CC1; 2Nal = N[C@@H](Cc1ccc2ccccc2c1)C(=O)O; Cit = NC(=O)NCCC[C@H](N)C(=O)O
# Experiments:
# [1] = target: T1, CXCR4 (Homo sapiens, UniProt P61073); assay: In vitro autoradiography saturation binding on U87-CXCR4 + tumour slices; settings: sections of subcutaneous U87-CXCR4 + tumours; 0.1–1000 nM; NSB with 100 µM AMD11070; N = 3
# T1 construct: expressed in transfected cells; host or cells: U87-MG (U87-CXCR4+), kept under blasticidin selection
# [2] = in vivo; set-up: species or system BALB/c nude mice; settings: mouse; for tissue uptake dose at 4 h / SUV at 4 h: BALB/c nude, iv, total radioactivity; for tissue uptake dose at 4 h: %IA
# Procedure: For the generation of the subcutaneous GBM xenograft model, BALB/c nude mice (between 8 and 12 weeks old) were anesthetised with 2.5% isoflurane in O2 at a flow rate of 0.2 L/min and subcutaneously injected on the right shoulder with 3 × 10^6 U87-CXCR4 + cells resuspended in a 1:1 mixture of PBS and Cultrex BME (R&D Systems, Bio-Techne, Minnesota, US). Tumours were left to grow for ten days before the start of the experiment. Tumour volumes were calculated as length × width × height. Three days before the experiment, the mean tumour volumes of all mice were 255 ± 119 mm^3.
# All animals were anesthetised with 2.5% isoflurane in O2 at a flow rate of 1 L/min and intravenously (IV) injected with 1.5 MBq of [^177Lu]Lu-POL3026 via a tail vein (radiolabelled with a Am of 53.1 ± 0.55 MBq/nmol). The mice were sacrificed by an overdose of pentobarbital (200 µL of 60 mg/mL) at 1-, 4-, 24- and 168 h post-injection (p.i.) (n = 3–4 per time point), followed by cardiac puncture. Organs of interest were collected in tarred tubes and weighed. The activity in the different organs was measured in the automated gamma counter described above. For the calculation of the total activity in the blood, bone, and muscle, the masses were assumed to be 7, 12 and 40% of the total body mass, respectively. Data is shown as standardised uptake value (SUV), calculated using the following equation:
# SUV = [Activity in organ (cpm) / Organ weight (g)] / [(Injected activity (cpm) / Total body weight (g)].
# A separate study was performed to evaluate the specificity of the uptake of [^177Lu]Lu-POL3026 in U87-CXCR4 + subcutaneous tumours and the rest of the organs. This was done by creating two groups (n = 4 / group), one group pre-injected intraperitoneally (IP) with 5 mg/kg of AMD11070, 30 min before the IV injection of [^177Lu]Lu-POL3026, while the other group was pre-injected with the DMSO vehicle. Mice from both groups were sacrificed 4 h post-injection and organs were collected as previously described.
# T1 sequence (P61073 whole entry): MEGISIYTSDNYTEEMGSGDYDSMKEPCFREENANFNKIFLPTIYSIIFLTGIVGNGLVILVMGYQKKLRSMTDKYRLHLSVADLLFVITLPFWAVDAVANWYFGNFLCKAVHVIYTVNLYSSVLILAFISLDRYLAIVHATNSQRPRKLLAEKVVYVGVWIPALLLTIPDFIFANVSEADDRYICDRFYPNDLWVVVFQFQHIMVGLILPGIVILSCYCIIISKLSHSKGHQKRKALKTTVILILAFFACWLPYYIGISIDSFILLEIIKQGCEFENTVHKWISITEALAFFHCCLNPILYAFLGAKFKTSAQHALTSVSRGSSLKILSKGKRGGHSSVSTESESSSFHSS
smiles,measurement,setting,value
"N=C(N)NCCC[C@@H]1NC(=O)[C@@H]2CSSC[C@H](NC(=O)[C@H](Cc3ccc4ccccc4c3)NC(=O)[C@H](CCCNC(=N)N)NC(=O)[C@H](CCCNC(=N)N)NC(=O)[C@H]3CCCN3C(=O)CNC1=O)C(=O)N[C@@H](Cc1ccc(O)cc1)C(=O)N[C@@H](CCC(N)=O)C(=O)N[C@@H](CCCCNC(=O)CN1CCN(CC(=O)O)CCN(CC(=O)O)CCN(CC(=O)O)CC1)C(=O)N1CCC[C@@H]1C(=O)N1CCC[C@H]1C(=O)N[C@@H](Cc1ccc(O)cc1)C(=O)N[C@@H](CCCNC(=N)N)C(=O)N[C@@H](CCCNC(N)=O)C(=O)N2 [[^177Lu]Lu-DOTA-POL3026, metal not drawn] (cyclo(RR[2Nal]CYQK(DOTA)[dP]PYR[Cit]CRG[dP]); disulfide 4-13)",Kd,[1],52 nM
same,tissue uptake dose at 4 h,"[2]; 5 mg/kg, Blood",0.33 %ID
same,tissue uptake dose at 4 h,"[2]; 5 mg/kg, Blood on tissue paper",0.97 %ID
same,tissue uptake dose at 4 h,"[2]; 5 mg/kg, Bone",5.16 %ID
same,tissue uptake dose at 4 h,"[2]; 5 mg/kg, Brain",0.01 %ID
same,tissue uptake dose at 4 h,"[2]; 5 mg/kg, Carcass",9.91 %ID
same,tissue uptake dose at 4 h,"[2]; 5 mg/kg, Heart",0.03 %ID
same,tissue uptake dose at 4 h,"[2]; 5 mg/kg, Intestines",1.17 %ID
same,tissue uptake dose at 4 h,"[2]; 5 mg/kg, Kidneys",5.44 %ID
same,tissue uptake dose at 4 h,"[2]; 5 mg/kg, Liver",33.8 %ID
same,tissue uptake dose at 4 h,"[2]; 5 mg/kg, Lungs",0.35 %ID
same,tissue uptake dose at 4 h,"[2]; 5 mg/kg, Muscle",1.02 %ID
same,tissue uptake dose at 4 h,"[2]; 5 mg/kg, Pancreas",0.02 %ID
same,tissue uptake dose at 4 h,"[2]; 5 mg/kg, Spleen",0.51 %ID
same,tissue uptake dose at 4 h,"[2]; 5 mg/kg, Stomach",0.06 %ID
same,tissue uptake dose at 4 h,"[2]; 5 mg/kg, Tail",3.44 %ID
same,tissue uptake dose at 4 h,"[2]; 5 mg/kg, Tumour",1.68 %ID
same,SUV at 4 h,"[2]; 5 mg/kg, Blood",0.05 SUV
same,SUV at 4 h,"[2]; 5 mg/kg, Bone",0.43 SUV
same,SUV at 4 h,"[2]; 5 mg/kg, Heart",0.06 SUV
same,SUV at 4 h,"[2]; 5 mg/kg, Kidneys",3.74 SUV
same,SUV at 4 h,"[2]; 5 mg/kg, Liver",5.76 SUV
same,SUV at 4 h,"[2]; 5 mg/kg, Lungs",0.57 SUV
same,SUV at 4 h,"[2]; 5 mg/kg, Muscle",0.03 SUV
same,SUV at 4 h,"[2]; 5 mg/kg, Pancreas",0.03 SUV
same,SUV at 4 h,"[2]; 5 mg/kg, Spleen",1.41 SUV
same,SUV at 4 h,"[2]; 5 mg/kg, Tumour",1.59 SUV
same,tissue uptake dose at 4 h,"[2]; 1.5 MBq, Blood",2.91 %ID
same,tissue uptake dose at 4 h,"[2]; 1.5 MBq, Blood on tissue paper",1.34 %ID
same,tissue uptake dose at 4 h,"[2]; 1.5 MBq, Bone",6.85 %ID
same,tissue uptake dose at 4 h,"[2]; 1.5 MBq, Brain",0.02 %ID
same,tissue uptake dose at 4 h,"[2]; 1.5 MBq, Carcass",20.3 %ID
same,tissue uptake dose at 4 h,"[2]; 1.5 MBq, Heart",0.16 %ID
same,tissue uptake dose at 4 h,"[2]; 1.5 MBq, Intestines",2.43 %ID
same,tissue uptake dose at 4 h,"[2]; 1.5 MBq, Kidneys",5.12 %ID
same,tissue uptake dose at 4 h,"[2]; 1.5 MBq, Liver",33.5 %ID
same,tissue uptake dose at 4 h,"[2]; 1.5 MBq, Lungs",1.23 %ID
same,tissue uptake dose at 4 h,"[2]; 1.5 MBq, Muscle",3.35 %ID
same,tissue uptake dose at 4 h,"[2]; 1.5 MBq, Pancreas",0.12 %ID
same,tissue uptake dose at 4 h,"[2]; 1.5 MBq, Spleen",1.74 %ID
same,tissue uptake dose at 4 h,"[2]; 1.5 MBq, Stomach",0.18 %ID
same,tissue uptake dose at 4 h,"[2]; 1.5 MBq, Tail",2.77 %ID
same,tissue uptake dose at 4 h,"[2]; 1.5 MBq, Tumour",3.35 %ID
same,SUV at 4 h,"[2]; 1.5 MBq, Blood",0.42 SUV
same,SUV at 4 h,"[2]; 1.5 MBq, Bone",0.57 SUV
same,SUV at 4 h,"[2]; 1.5 MBq, Brain",0.01 SUV
same,SUV at 4 h,"[2]; 1.5 MBq, Heart",0.37 SUV
same,SUV at 4 h,"[2]; 1.5 MBq, Kidneys",3.84 SUV
same,SUV at 4 h,"[2]; 1.5 MBq, Liver",6.18 SUV
same,SUV at 4 h,"[2]; 1.5 MBq, Lungs",2.29 SUV
same,SUV at 4 h,"[2]; 1.5 MBq, Muscle",0.08 SUV
same,SUV at 4 h,"[2]; 1.5 MBq, Pancreas",0.15 SUV
same,SUV at 4 h,"[2]; 1.5 MBq, Spleen",4.83 SUV
same,SUV at 4 h,"[2]; 1.5 MBq, Tumour",2.58 SUV
same,"SUV, Brain","[2]; ip, 5 mg/kg",0.00
